Test results reported in patent US20230241243A1, “CARRIER PARTICLE-DRUG CONJUGATES, SELF-IMMOLATIVE LINKERS, AND USES THEREOF” (priority 2020, published 2023).

Assay: Drug-release assay of nanoparticle-conjugated linker-payloads under cleavage conditions (Cat-B, redox-responsive or pH-sensitive cleaving study), RP-HPLC
Format: in vitro ADME
Settings: linker-payload conjugated to DBCO-functionalized silica nanoparticle, 37° C., 24 hours
Description: To assess the drug releasing profile of exemplary linker-drug conjugates, the linker-drug conjugates were each conjugated to a DBCO-functionalized ultrasmall silica nanoparticle via a click chemistry reaction between the azide groups on the linker-drug conjugate precursors and the dibenzocyclooctyne (DBCO) groups of the nanoparticles. The resulting drug-nanoparticle-conjugates were then incubated under the desired releasing conditions for release kinetics tests.
The amount of released drugs vs non-released drugs was measured using reverse phase HPLC by analyzing the area under curve (AUC) (FIG. 10A and FIG. 10B).
General Method: A Waters Xbridge Peptide BEH C18 column with 4.6 mm×50 mm dimensions, a particle size of 5 μm, and a pore size of 300 A was used (part number 186003622). Acetonitrile (VWR HiPerSolv Chromanorm, UHPLC Grade) was used as received without further preparation, […] trifluoroacetic acid in deionized water was prepared by adding 1 mL of trifluoroacetic acid (HPLC grade, Millipore-Sigma) into 999 mL 18.2 MΩ·cm deionized water that was generated using an IQ7000 Millipore deionized water system and passed through a 0.2 μm filter before use. The seal wash used for the system was composed of 90% 18.2 MΩ·cm deionized water and 10% methanol (HPLC grade, VWR). The injection needle was washed using a mixture of 25 vol % 18.2 MΩ·cm deionized water, 25 vol % acetonitrile, 25 vol % methanol, and 25 vol % 2-propanol. Samples were prepared in a concentration range of 0.25 to 2 μM and the injection volume ranges from 60 μL to 10 μL, respectively. Higher sample concentration can be used if detector signal is low. Vials used for all injections are fresh Waters Total Recovery vials with screw caps that have pre-slit PTFE septa (part number 186000385C).
Method for Protease-cleavable and Redox-responsive Linkers: Before any sample injections were started, the PDA lamp was turned on and allowed to warm up for at least 30 minutes. The system and column were equilibrated with 95% 0.01% TFA in deionized water, 5% acetonitrile for at least 10 minutes at a flow rate of 1.0 mL/min after the PDA lamp had warmed up. Two blank injections, with injection volumes of 10 μL containing only 18.2 MΩ·cm deionized water, were performed before the injection of any samples for analysis. The gradient used to elute protease-cleavable and redox-sensitive linkers conjugated to hybrid silica nanoparticles, and their components began at 95% 0.01% TFA in deionized water and 5% acetonitrile and linearly changed to 15% 0.01% TFA in deionized water, 85% acetonitrile over 8 minutes. Acetonitrile composition was increased to 95% over an additional minute and held at 95% for an additional 2 minutes to ensure that any strongly retained compounds are eluted. The composition of the solvent was then changed back to the starting composition of the gradient over an additional minute and allowed to equilibrate for 3 minutes before another injection began. Between sample injections a blank injection was run to ensure that no carryover occurred.
Method for pH-sensitive Linkers: Before any sample injections were started, the PDA lamp was turned on and allowed to warm up for at least 30 minutes. A gradient of pure deionized water and acetonitrile was used, all other consumables including column and vials were the same as for the method to purify Cat-B sensitive and redox-responsive linkers elaborated on above. Briefly the gradient composition began at 95% deionized water and 5% acetonitrile at a flow rate of 1.0 mL/min (not changed throughout the method). The composition was changed from this starting composition to 15% deionized water and 85% acetonitrile over a 12-minute period, during which the retained drug-linkers, released drug, free drug linker, and any other impurities eluted. At the 12-minute mark the composition was rapidly changed to 5% deionized water and 95% acetonitrile over the course of one minute. […]

Compound	% of Payload Release in 24 Hours Under Cleavage Conditions
CCc1c2c(nc3ccc(OCCCNC(=O)OCc4ccc(SSC(C)(C)CNC(=O)CCOCCOCCOCCOCCOCCOCCOCCOCCOCCN=[N+]=[N-])cc4)cc13)-c1cc3c(c(=O)n1C2)COC(=O)[C@]3(O)CC [Example 59, 4-((1-azido-33-methyl-30-oxo-3,6,9,12,15,18,21,24,27-nonaoxa-31-azatetratriacontan-33-yl)disulfanyl)benzyl (S)-(3-((4,11-diethyl-4-hydroxy-3,14-dioxo-3,4,12,14-tetrahydro-1H-pyrano[3′,4′:6,7]indolizino[1,2-b]quinolin-9-yl)oxy)propyl)carbamate]	+++ (‘+++’ indicates 51-75% release)
CCc1c2c(nc3ccc(OCCCNC(=O)OCCSSCCNC(=O)CCOCCOCCOCCOCCOCCOCCOCCOCCOCCN=[N+]=[N-])cc13)-c1cc3c(c(=O)n1C2)COC(=O)[C@]3(O)CC [Example 61, 37-Azido-8-oxo-11,14,17,20,23,26,29,32,35-nonaoxa-3,4-dithia-7-azaheptatriacontyl (S)-(3-((4,11-diethyl-4-hydroxy-3,14-dioxo-3,4,12,14-tetrahydro-1H-pyrano[3′,4′:6,7]indolizino[1,2-b]quinolin-9-yl)oxy)propyl)carbamate]	+ (‘+’ indicates 5-25% release)
CCc1c2c(nc3ccc(OC(C(=O)OC)c4ccc(NC(=O)[C@H](CCCNC(N)=O)NC(=O)[C@@H](NC(=O)CCOCCOCCOCCOCCOCCOCCOCCOCCOCCN=[N+]=[N-])C(C)C)cc4)cc13)-c1cc3c(c(=O)n1C2)COC(=O)[C@]3(O)CC (stereo partly drawn) [Example 13-R isomer, Methyl 2-(4-((32S,35S)-1-azido-32-isopropyl-30,33-dioxo-35-(3-ureidopropyl)-3,6,9,12,15,18,21,24,27-nonaoxa-31,34-diazahexatriacontan-36-amido)phenyl)-2-(((S)-4,11-diethyl-4-hydroxy-3,14-dioxo-3,4,12,14-tetrahydro-1H-pyrano[3′,4′:6,7]indolizino[1,2-b]quinolin-9-yl)oxy)acetate]	+ (‘+’ indicates 5-25% release)
CCc1c2c(nc3ccc(OCc4ccc(NC(=O)[C@H](CCCNC(N)=O)NC(=O)[C@@H](NC(=O)CCOCCOCCOCCOCCOCCOCCOCCOCCOCCOCCOCCN=[N+]=[N-])C(C)C)cc4)cc13)-c1cc3c(c(=O)n1C2)COC(=O)[C@]3(O)CC [Example 49, 1-azido-N-((S)-1-(((S)-1-((4-((((S)-4,11-diethyl-4-hydroxy-3,14-dioxo-3,4,12,14-tetrahydro-1H-pyrano[3′,4′:6,7]indolizino[1,2-b]quinolin-9-yl)oxy)methyl)phenyl)amino)-1-oxo-5-ureidopentan-2-yl)amino)-3-methyl-1-oxobutan-2-yl)-3,6,9,12,15,18,21,24,27,30,33-undecaoxahexatriacontan-36-amide]	+ (‘+’ indicates 5-25% release)
CC[C@@]1(O)C(=O)OCc2c1cc1n(c2=O)Cc2c-1nc1cc(F)c(C)c3c1c2[C@@H](NC(=O)OCc1ccc(NC(=O)[C@H](CCCNC(N)=O)NC(=O)[C@@H](NC(=O)CCOCCOCCOCCOCCOCCN=[N+]=[N-])C(C)C)cc1)CC3 [Example 9, 4-((20S,23S)-1-azido-20-isopropyl-18,21-dioxo-23-(3-ureidopropyl)-3,6,9,12,15-pentaoxa-19,22-diazatetracosan-24-amido)benzyl ((1S,9S)-9-ethyl-5-fluoro-9-hydroxy-4-methyl-10,13-dioxo-2,3,9,10,13,15-hexahydro-1H,12H-benzo[de]pyrano[3′,4′:6,7]indolizino[1,2-b]quinolin-1-yl)carbamate]	++++ (‘++++’ indicates 76-100% release)
CCc1c2c(nc3ccc(OCCCNC(=O)OCc4ccc(NC(=O)[C@H](CCCNC(N)=O)NC(=O)[C@@H](NC(=O)CCOCCOCCOCCOCCOCCN=[N+]=[N-])C(C)C)cc4)cc13)-c1cc3c(c(=O)n1C2)COC(=O)[C@]3(O)CC [Example 15, 4-((20S,23S)-1-azido-20-isopropyl-18,21-dioxo-23-(3-ureidopropyl)-3,6,9,12,15-pentaoxa-19,22-diazatetracosan-24-amido)benzyl (3-(((S)-4,11-diethyl-4-hydroxy-3,14-dioxo-3,4,12,14-tetrahydro-1H-pyrano[3′,4′:6,7]indolizino[1,2-b]quinolin-9-yl)oxy)propyl)carbamate]	++ (‘++’ indicates 26-50% release)
CC[C@@]1(O)C(=O)OCc2c1cc1n(c2=O)Cc2c-1nc1cc(F)c(C)c3c1c2[C@@H](NC(=O)CSSC(C)(C)CNC(=O)CCOCCOCCOCCOCCOCCOCCOCCOCCOCCOCCOCCOCCN=[N+]=[N-])CC3 [Example 60, 1-azido-N-(2-((2-(((1S,9S)-9-ethyl-5-fluoro-9-hydroxy-4-methyl-10,13-dioxo-2,3,9,10,13,15-hexahydro-1H,12H-benzo[de]pyrano[3′,4′:6,7]indolizino[1,2-b]quinolin-1-yl)amino)-2-oxoethyl)disulfaneyl)-2-methylpropyl)-3,6,9,12,15,18,21,24,27,30,33,36-dodecaoxanonatriacontan-39-amide]	+++ (‘+++’ indicates 51-75% release)
CCc1c2c(nc3ccc(OCCCSSC(C)(C)CNC(=O)CCOCCOCCOCCOCCOCCN=[N+]=[N-])cc13)-c1cc3c(c(=O)n1C2)COC(=O)[C@]3(O)CC [Example 54, (S)-1-azido-N-(2-((3-((4,11-diethyl-4-hydroxy-3,14-dioxo-3,4,12,14-tetrahydro-1H-pyrano[3′,4′:6,7]indolizino[1,2-b]quinolin-9-yl)oxy)propyl)disulfanyl)-2-methylpropyl)-3,6,9,12,15-pentaoxaoctadecan-18-amide]	+ (‘+’ indicates 5-25% release)
CC[C@@]1(O)C(=O)OCc2c1cc1n(c2=O)Cc2c-1nc1cc(F)c(C)c3c1c2[C@@H](NC(=O)C(=O)c1ccc(NC(=O)[C@H](CCCNC(N)=O)NC(=O)[C@@H](NC(=O)CCOCCOCCOCCOCCOCCOCCN=[N+]=[N-])C(C)C)cc1)CC3 [Example 24, 1-azido-N-((S)-1-(((S)-1-((4-(2-(((1S,9S)-9-ethyl-5-fluoro-9-hydroxy-4-methyl-10,13-dioxo-2,3,9,10,13,15-hexahydro-1H,12H-benzo[de]pyrano[3′,4′:6,7]indolizino[1,2-b]quinolin-1-yl)amino)-2-oxoacetyl)phenyl)amino)-1-oxo-5-ureidopentan-2-yl)amino)-3-methyl-1-oxobutan-2-yl)-3,6,9,12,15,18-hexaoxahenicosan-21-amide]	+ (‘+’ indicates 5-25% release)
CC[C@@]1(O)C(=O)OCc2c1cc1n(c2=O)Cc2c-1nc1cc(F)c(C)c3c1c2[C@@H](NC(=O)C(O)c1ccc(NC(=O)[C@H](CCCCN)NC(=O)[C@H](Cc2ccccc2)NC(=O)CCOCCOCCOCCOCCOCCOCCN=[N+]=[N-])cc1)CC3 (single isomer, unassigned) [Example 29-Peak 1]	+++ (‘+++’ indicates 51-75% release)
CCc1c2c(nc3ccc(OCCCNC(=O)OCc4ccc(NC(=O)[C@H](CCCCN)NC(=O)[C@H](Cc5c[nH]c6ccccc56)NC(=O)CCOCCOCCOCCOCCOCCOCCOCCOCCOCCN=[N+]=[N-])cc4)cc13)-c1cc3c(c(=O)n1C2)COC(=O)[C@]3(O)CC [Example 32, 4-((32S,35S)-32-((1H-indol-3-yl)methyl)-35-(4-aminobutyl)-1-azido-30,33-dioxo-3,6,9,12,15,18,21,24,27-nonaoxa-31,34-diazahexatriacontan-36-amido)benzyl (3-(((S)-4,11-diethyl-4-hydroxy-3,14-dioxo-3,4,12,14-tetrahydro-1H-pyrano[3′,4′:6,7]indolizino[1,2-b]quinolin-9-yl)oxy)propyl)carbamate]	+ (‘+’ indicates 5-25% release)
